Data taken from patent US10717774B2, “Compositions and methods for treating cancers” (Kiromic, Inc., priority 2016, dated 2020).

B1: CBPI2: novel Gal-3 N-terminal truncation protein, deletes amino acids 1-112, substitutions P113A, L114V, Y118N, and T248N (protein)
chain: AVIVPNNLPLPGGVVPRMLITILGTVKPNANRIALDFQRGNDVAFHFNPRFNENNRRVIVCNTKLDNNWGREERQSVFPFESGKPFKIQVLVEPDHFKVAVNDAHLLQYNHRVKKLNEISKLGISGDIDLTSASYNMI
B2: CBPI1: novel Gal-3 N-terminal truncation protein, identical in sequence to native Gal-3 amino acids 109-250 (protein)
chain: APAGPLIVPYNLPLPGGVVPRMLITILGTVKPNANRIALDFQRGNDVAFHFNPRFNENNRRVIVCNTKLDNNWGREERQSVFPFESGKPFKIQVLVEPDHFKVAVNDAHLLQYNHRVKKLNEISKLGISGDIDLTSASYTMI

How the values were obtained:
Format in all cases: cell-based, human
[1] = tested on: breast cancer cell line MCF7; test: MTT assay in MCF7; conditions: protein alone, 20 μg/mL, 48 hours
Procedure: (§1) The human multiple myeloma cell line U266, ovarian cancer cell line SKOV3, and acute monocytic leukemia cell line THP1 were cultured in RPMI 1640 with 10% FBS. The breast cancer cell line MCF7 was cultured in Dulbecco's modified Eagle's medium (DMEM) with 10% FBS. Drugs were purchased from Merck Millipore and used at the following concentrations: Bortezomib (Bor) 5 nM; Cytarabine (Ara-c) 3.87 μM; Rapamycin (Rapa) 100 nM; Paclitaxel (Pax) 100 nM.
(§2) Cells were seeded in 96-well plates, at a volume of 100 μL cell suspension/well, in quadruplicate. SKOV3 and MCF7 cells were seeded at a density of 100,000 cells/mL. THP1 cells were seeded at a density of at 200,000 cells/mL; whereas, U266 cells were seeded at a density of 300,000 cells/mL. Cells were then treated with CBPI1 or CBPI2 at 20 μg/mL for 48 hours. For the last 24 hours, the appropriate drugs were added. Cell viability was subsequently assayed after 48 hours of incubation with 0.6 mg/mL MTT ((3-(4,5-dimethylthiazolyl-2)-2,5-diphenyltetrazolium bromide; Sigma-Aldrich) for 4 hours. Formazan crystals were dissolved in […] 0.01N HCL/isopropanol. Specific absorbance was measured at 570 nm with subtraction of background at 690 nm.
(§3) Data are represented as means±SD from at least three (3) independent experiments. ***^=P<0.001; **^=P<0.01; *^=P<0.05.

[2] = tested on: multiple myeloma cell line U266; test: Detection of apoptosis (Annexin-V FITC / propidium iodide flow cytometry) in U266; conditions: 20 μg/mL 48 hours, combined with Bortezomib (Bor) 5 nM for the last 24 hours; compared with Bor alone
Procedure: as §1
(§4) Cells were seeded in 48-well at the same concentrations for the MTT assay. The cells were treated with CBPI1 or CBPI2 at 20 μg/mL for 48 hours. For the last 24 hours, the appropriate drugs were added. […] Finally, 400 μL of Binding Buffer 1× were added to the tube and samples were processed and analyzed using the BD FACSVerse™ System (BD Biosciences). […]
(§5) FIG. 6—After the indicated treatments, the cells were analyzed for apoptosis by flow-cytometry. Plots represent the relative of fluorescence intensities in the green (FL1, horizontal axis) and red (FL2, vertical axis) channels. […] Red fluorescence is thus picked up by the flow-cytometer in the FL2 channel. Each dot represents a fluorescent signal (cell), detected by the flow-cytometer. […]

[3] = tested on: multiple myeloma cell line U266; test: MTT assay in U266; conditions: protein alone, 20 μg/mL, 48 hours
Procedure: as §1, §2, §3

[4] = tested on: acute monocytic leukemia cell line THP1; test: MTT assay in THP1; conditions: protein alone, 20 μg/mL, 48 hours
Procedure: as §1, §2, §3

[5] = tested on: ovarian cancer cell line SKOV3; test: Detection of apoptosis (Annexin-V FITC / propidium iodide flow cytometry) in SKOV3; conditions: for apoptotic rate of SKOV3 cells: 20 μg/mL 48 hours, combined with Paclitaxel (Pax) 100 nM for the last 24 hours, compared with Paclitaxel alone
Procedure: as §1
Cells were seeded in 48-well at the same concentrations for the MTT assay. The cells were treated with CBPI1 or CBPI2 at 20 μg/mL for 48 hours. For the last 24 hours, the appropriate drugs were added. After 48 hours, the cells were washed with cold 1×PBS, resuspended in “Binding buffer 1×” (i.e., HEPES 0.01M; NaCl 0.14M; and CaCl2 2.5 mM) and incubated for 15 minutes with Annexin-V FITC (BD Biosciences)+Propidium Iodide (2.5 μg/mL final; Sigma-Aldrich) in the dark. Finally, 400 μL of Binding Buffer 1× were added to the tube and samples were processed and analyzed using the BD FACSVerse™ System (BD Biosciences).
as §3
FIG. 6—After the indicated treatments, the cells were analyzed for apoptosis by flow-cytometry. Plots represent the relative of fluorescence intensities in the green (FL1, horizontal axis) and red (FL2, vertical axis) channels. The apoptosis detector, Annexin-V, is linked to a green fluorescent molecule (FITC), and produces a fluorescent signal in the FL1 channel. Cells in late apoptosis are unable to pump propidium iodide (PI) out of the cytoplasm, and are therefore red fluorescent. Red fluorescence is thus picked up by the flow-cytometer in the FL2 channel. Each dot represents a fluorescent signal (cell), detected by the flow-cytometer. Each dot-plot is divided into 4 quadrants. From bottom-left and proceeding counter-clockwise, these are Q1, Q2, Q3, and Q4. […]

[6] = tested on: breast cancer cell line MCF7; test: Detection of apoptosis (Annexin-V FITC / propidium iodide flow cytometry) in MCF7; conditions: protein alone, 20 μg/mL, 48 hours; compared to the control cells
Procedure: as §1, §4, §5

[7] = tested on: ovarian cancer cell line SKOV3; test: MTT assay in SKOV3; conditions: for combined effect with Pax compared to Paclitaxel alone by MTT assay: 20 μg/mL 48 hours plus Paclitaxel 100 nM for the last 24 hours; for viability of metabolically-active cells (MTT): protein alone, 20 μg/mL, 48 hours, compared to the control cells
Procedure: as §1, §2, §3

[8] = tested on: acute monocytic leukemia cell line THP1; test: Detection of apoptosis (Annexin-V FITC / propidium iodide flow cytometry) in THP1; conditions: 20 μg/mL 48 hours, in combination with Ara-C 3.87 μM for the last 24 hours; compared to the control cells
Procedure: as §1, §4, §5

Molecule	viability of metabolically-active cells (MTT) [1]	U266 cells apoptosis rate [2]	viability of metabolically-active cells (MTT) [3]	viability of metabolically-active cells (MTT) [4]	apoptotic rate of SKOV3 cells [5]	apoptosis in ovarian cancer cells ([5]; protein alone, 20 μg/mL, 48 hours, SKOV3)	MCF7 cells apoptotic rate [6]	combined effect with Pax compared to Paclitaxel alone by MTT assay [7]	viability of metabolically-active cells (MTT) [7]	apoptotic rate of THP1 cells [8]
B1	significantly decreases	significantly increase	significantly decrease	significantly decreases	significantly increase	effective in causing apoptosis	significantly increases	not evident	significantly decrease	significantly increase
B2			significantly decrease		significantly increase			not evident	significantly decrease	significantly increase
